Measurements as given in patent US8106020B2, “Calcium receptor activator” (Ajinomoto Co., Inc., priority 2005, dated 2012).
Starred links: 1 amine or outer side, 2 acyl side, 3 side chain; linkers in the order of their positions; H or OH if unused. Non-standard residues stand in square brackets, D forms with d. No end group written: not given here. Cys(S-allyl) = S-allylcysteine, C=CCSC[C@H](N[*:1])C(=O)[*:2]; Cys(S-Me) = S-methylcysteine, CSC[C@H](N[*:1])C(=O)[*:2]; γGlu = O=C(O)[C@H](CCC(=O)[*:2])N[*:1]; Tau = Taurine, O=S(=O)(CCN[*:1])[*:2]; Tle = CC(C)(C)[C@H](N)C(=O)O; Orn = NCCC[C@H](N)C(=O)O; Abu = CC[C@H](N)C(=O)O

Each compound was assayed against T1, human calcium receptor (Homo sapiens, UniProt P41180) (assay: Calcium receptor activation activity: Ca ion concentration-dependent Cl ionic current in Xenopus laevis oocyte expression system). Settings: Ca ion concentration-dependent Cl response current; peptides added at 1000 to 0.1 μM; oocytes voltage-clamped at −70 mV.
T1 construct: expressed in transfected cells; host or cells: Xenopus laevis oocytes microinjected with cRNA; gene amplified by PCR from human kidney cDNA (Clontech) and cloned in pBR322
T1 sequence (P41180 20-1078): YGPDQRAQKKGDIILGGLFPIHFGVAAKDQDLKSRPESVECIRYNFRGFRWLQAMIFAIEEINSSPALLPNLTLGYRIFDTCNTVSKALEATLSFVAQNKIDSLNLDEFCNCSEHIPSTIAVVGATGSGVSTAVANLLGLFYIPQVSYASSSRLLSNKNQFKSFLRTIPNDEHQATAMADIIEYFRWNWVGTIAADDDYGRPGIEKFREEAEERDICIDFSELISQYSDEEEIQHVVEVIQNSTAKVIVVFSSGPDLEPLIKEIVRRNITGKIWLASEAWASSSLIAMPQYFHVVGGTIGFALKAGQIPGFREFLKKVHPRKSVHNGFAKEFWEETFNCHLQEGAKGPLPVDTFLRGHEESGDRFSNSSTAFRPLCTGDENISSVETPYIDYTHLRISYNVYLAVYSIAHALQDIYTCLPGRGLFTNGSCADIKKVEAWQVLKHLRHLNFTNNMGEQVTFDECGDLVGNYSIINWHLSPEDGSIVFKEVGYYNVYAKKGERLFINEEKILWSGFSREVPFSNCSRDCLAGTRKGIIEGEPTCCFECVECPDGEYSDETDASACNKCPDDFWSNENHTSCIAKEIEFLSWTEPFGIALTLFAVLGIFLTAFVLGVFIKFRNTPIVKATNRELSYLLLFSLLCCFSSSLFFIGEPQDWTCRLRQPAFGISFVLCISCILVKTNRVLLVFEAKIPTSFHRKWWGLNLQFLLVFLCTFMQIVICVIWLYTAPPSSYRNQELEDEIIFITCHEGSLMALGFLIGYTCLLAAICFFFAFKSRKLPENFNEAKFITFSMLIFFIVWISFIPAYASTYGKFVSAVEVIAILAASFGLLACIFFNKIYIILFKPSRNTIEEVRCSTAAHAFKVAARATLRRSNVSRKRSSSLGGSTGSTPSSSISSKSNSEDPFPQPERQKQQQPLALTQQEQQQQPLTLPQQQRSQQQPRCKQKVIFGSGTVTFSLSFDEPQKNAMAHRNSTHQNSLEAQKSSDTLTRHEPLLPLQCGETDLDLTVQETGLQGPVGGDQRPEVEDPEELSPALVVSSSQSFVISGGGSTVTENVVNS
Format: cell-based
Description: To evaluate calcium receptor activation activity, a Ca ion concentration-dependent Cl ionic current measuring method using a Xenopus laevis oocyte expression system was used. If each activator is added to Xenopus laevis oocytes expressing the calcium receptor, intracellular Ca ions increase. Then, the Ca ion concentration-dependent Cl channel opens, and the intracellular current value changes as an ionic current. By measuring the change in this intracellular current value, the presence or absence of calcium receptor activation activity can be determined.
Specifically, the abdomen of Xenopus laevis was opened, and an egg batch was taken out and treated with a 1% collagenase solution at 20° C. for 2 hours to obtain individual oocytes. Into the oocytes, 50 nl of 1 μg/μl receptor cRNA or 50 nl of sterilized water per oocyte was introduced by using a micro glass capillary, and the oocytes were cultured at 18° C. for 2 or 3 days. For the culture, a solution obtained by adding 2 mM pyruvic acid, 10 U/ml of penicillin, and 10 μg/ml of streptomycin to the solution in Example 2 was used. After the culture, a test solution was added to the oocytes containing either the cRNA or sterilized water. Electrophysiological measurement was performed by using an amplifier, Geneclamp500 (Axon), and recording software, AxoScope 9.0 (Axon). The oocytes were voltage-clamped at −70 mV by the double electrode voltage clamp method, and the intracellular current was measured via the Ca ion concentration-dependent Cl ion channel. The maximum value of the intracellular current was considered as the response current value.
Calcium receptor activation activity of L-amino acids was evaluated by using the method described in Example 6. That is, oocytes containing either cRNA of the calcium receptor or sterilized water were prepared, and voltage-clamped at −70 mV by the double electrode voltage clamp method. To the voltage-clamped oocytes, alanine (10 mM), arginine (10 mM), asparagine (10 mM), aspartic acid (10 mM), cysteine (10 mM), glutamine (10 mM), glutamic acid (10 mM), glycine (10 mM), histidine (10 mM), isoleucine (10 mM), leucine (10 mM), lysine (10 mM), methionine (10 mM), phenylalanine (10 mM), proline (10 mM), serine (10 mM), threonine (10 mM), tryptophan (10 mM), tyrosine (10 mM), valine (10 mM), ornithine (10 mM), taurine (10 mM), or hydroxyproline (10 mM) was added, and Ca ion concentration-dependent Cl response current was measured. […] As for the aforementioned amino acids, the activation activity was reported in Proc. Natl. Acad. Sci. USA, 2000 Apr. 25, 97(9):4814-9.
Calcium receptor activation activity of D-cysteine was evaluated by using the method described in Example 6. That is, oocytes containing either cRNA of the calcium receptor or sterilized water were prepared, and voltage-clamped at −70 mV by the double electrode voltage clamp method. To the voltage-clamped oocytes, D-cysteine (10 mM), L-cysteine (10 mM), D-tryptophan (10 mM), or L-tryptophan (10 mM) was added, and Ca ion concentration-dependent Cl response current was measured.
Calcium receptor activation activity of peptides was evaluated by using the method described in Example 6. That is, oocytes containing either cRNA of the calcium receptor or sterilized water were prepared, and voltage-clamped at −70 mV by the double electrode voltage clamp method.
Calcium receptor activation activity of peptides was evaluated in the same manner as that of Example 10. Each of the peptides shown in Table 2 was added to voltage-clamped oocytes at 1000 μM, 300 μM, 100 μM, 30 μM, 10 μM, 3 μM, 1 μM, 0.3 μM, and 0.1 μM, and Ca ion concentration-dependent Cl response current was measured.

Compound | Activity (lowest concentration for which current was detected) [µM]
γ-Glu-Abu-Gly ([γGlu]-[Abu]-Gly) | 3
γ-Glu-Cys(S-Me)-Gly ([γGlu]-[Cys(S-Me)]-Gly) | 3
γ-Glu-Cys(S-allyl)-Gly ([γGlu]-[Cys(S-allyl)]-Gly) | 100
γ-Glu-Gly-Gly ([γGlu]-Gly-Gly) | 30
γ-Glu-Ser-Gly ([γGlu]-Ser-Gly) | 30
γ-Glu-Tau ([γGlu]-[Tau]) | 300
γ-Glu-Val-Arg ([γGlu]-Val-Arg) | 1000
γ-Glu-Val-Asn ([γGlu]-Val-Asn) | 30
γ-Glu-Val-Asp | 1000
γ-Glu-Val-Cys ([γGlu]-Val-Cys) | 10
γ-Glu-Val-Gln ([γGlu]-Val-Gln) | 10
γ-Glu-Val-Glu ([γGlu]-Val-Glu) | 1000
γ-Glu-Val-Gly ([γGlu]-Val-Gly) | 0.1
γ-Glu-Val-His ([γGlu]-Val-His) | 100
γ-Glu-Val-Lys ([γGlu]-Val-Lys) | 1000
γ-Glu-Val-Met ([γGlu]-Val-Met) | 1000
γ-Glu-Val-Orn ([γGlu]-Val-[Orn]) | 100
γ-Glu-Val-Phe ([γGlu]-Val-Phe) | 30
γ-Glu-Val-Pro ([γGlu]-Val-Pro) | 30
γ-Glu-Val-Ser ([γGlu]-Val-Ser) | 30
γ-Glu-Val-Thr ([γGlu]-Val-Thr) | 1000
γ-Glu-Val-Val ([γGlu]-Val-Val) | 1000
γ-Glu-t-Leu ([γGlu]-[Tle]) | 100
γ-Glu-γ-Glu-Val ([γGlu]-[γGlu]-Val) | 1000

Same assay, conditions: D-amino acid 10 mM; FIG. 3

Compound | calcium receptor activation activity (Cl response current)
N[C@H](CS)C(=O)O [D-cysteine] | definitive calcium receptor activation activity

Same assay, conditions: L-amino acid 10 mM; FIG. 2

Compound | calcium receptor activation activity (Cl response current)
N[C@@H](CS)C(=O)O [cysteine, reference compound] | definite calcium receptor activation activity
N[C@@H](Cc1c[nH]cn1)C(=O)O [histidine, reference compound] | definite calcium receptor activation activity
N[C@@H](Cc1ccccc1)C(=O)O [phenylalanine, reference compound] | definite calcium receptor activation activity
N[C@@H](Cc1c[nH]c2ccccc12)C(=O)O [tryptophan, reference compound] | definite calcium receptor activation activity
N[C@@H](Cc1ccc(O)cc1)C(=O)O [tyrosine, reference compound] | definite calcium receptor activation activity

Same assay, conditions: peptide 50 μM; FIG. 4

Compound | calcium receptor activation activity (Cl response current)
N[C@@H](CCC(=O)N[C@@H](CSN=O)C(=O)NCC(=O)O)C(=O)O [γ-Glu-Cys(SNO)-Gly] | definitive calcium receptor activation activity
N[C@@H](CCC(=O)N[C@@H](CS)C(=O)NCC(=O)O)C(=O)O [γ-Glu-Cys-Gly] | definitive calcium receptor activation activity

Same assay, conditions: peptide 500 μM; FIG. 4

Compound | calcium receptor activation activity (Cl response current)
γ-Glu-Orn ([γGlu]-[Orn]) | definitive calcium receptor activation activity

The compounds below were run on Parathyroid hormone (PTH) (assay: Pharmacological evaluation in rats: serum PTH after intravenous injection). Settings: 15 minutes after the administration; male Sprague-Dawley rats, 100 mg/ml in saline, 0.1 ml/100 g body weight, tail vein.
Format: in vivo, rat
From the text: The pharmacological effects of the peptides were confirmed by animal study. Parathyroid hormone (PTH) is one of the major proteins which relate to calcium homeostasis. Increase in PTH is directly responsible for hyperparathyroidism and hypoparathyroidism. It is known that PTH is secreted from the parathyroid gland, and its secretion is inhibited when the calcium receptor is activated. Male, 10 weeks old, Sprague-Dawley strain rats were used. “Rat Intact PTH ELISA KIT” (Immutopics) was used for measuring PTH according to the manufacturer's recommended protocol. 100 mg/ml of γ-Glu-Val-Gly was dissolved in physiological saline, and 0.1 ml/100 g body weight for each was injected through the tail vein. Blood was collected from the vein under the right clavicle, and blood serum was obtained by centrifugation. Each group consists of 3 rats, and PTH variation is shown below as average value±standard error. The result for the peptide-administered group was: 148±72.5 pg/ml before the administration and 9.44±2.94 pg/ml 15 minutes after the administration; meanwhile, the result for the control group (physiological saline administered group) was: 89.4±49.5 pg/ml before the administration and 41.1±11.6 pg/ml 15 minutes after the administration. As a result, PTH levels decreased as a result of the administration of the peptides.

Compound | PTH in blood serum, average value±standard error [pg/mL]
γ-Glu-Val-Gly ([γGlu]-Val-Gly) | 9.44 ± 2.94

Same assay, conditions: before the administration; male Sprague-Dawley rats, 100 mg/ml in saline, 0.1 ml/100 g body weight, tail vein

Compound | PTH in blood serum, average value±standard error [pg/mL]
γ-Glu-Val-Gly ([γGlu]-Val-Gly) | 148 ± 72.5
